Biological target: mouse hypoxia inducible factor-1 alpha (mouse) (UniProt Q61221)
Assay: cell-based or functional assay

Sequence of mouse hypoxia inducible factor-1 alpha (mouse) (Q61221 whole entry): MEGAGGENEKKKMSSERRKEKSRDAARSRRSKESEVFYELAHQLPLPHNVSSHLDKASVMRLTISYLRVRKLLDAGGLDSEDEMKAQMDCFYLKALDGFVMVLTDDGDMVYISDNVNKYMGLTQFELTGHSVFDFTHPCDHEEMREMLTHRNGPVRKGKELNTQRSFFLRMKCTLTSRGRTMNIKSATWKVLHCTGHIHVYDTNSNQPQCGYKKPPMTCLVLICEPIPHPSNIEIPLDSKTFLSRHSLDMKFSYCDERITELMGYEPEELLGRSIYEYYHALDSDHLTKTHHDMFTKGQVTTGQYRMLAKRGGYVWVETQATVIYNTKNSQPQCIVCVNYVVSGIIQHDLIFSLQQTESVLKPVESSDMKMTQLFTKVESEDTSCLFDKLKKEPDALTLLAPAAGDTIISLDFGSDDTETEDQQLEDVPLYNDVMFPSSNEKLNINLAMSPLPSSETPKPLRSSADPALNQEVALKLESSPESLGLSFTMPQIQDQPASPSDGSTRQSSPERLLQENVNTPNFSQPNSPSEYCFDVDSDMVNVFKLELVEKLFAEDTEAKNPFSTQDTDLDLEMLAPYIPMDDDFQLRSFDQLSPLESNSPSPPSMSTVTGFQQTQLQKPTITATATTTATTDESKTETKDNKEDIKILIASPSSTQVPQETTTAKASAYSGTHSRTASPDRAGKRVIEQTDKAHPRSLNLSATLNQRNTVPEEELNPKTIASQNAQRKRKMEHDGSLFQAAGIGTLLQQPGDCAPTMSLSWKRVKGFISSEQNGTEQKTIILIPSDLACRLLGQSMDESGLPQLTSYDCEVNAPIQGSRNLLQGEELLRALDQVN

- reduction of the transactivation activity of cotransfected HIF-1 alpha on the hypoxia responsive luciferase reporter (HEK/293 cells, equal amounts of each plasmid): 90%
Substance: EGLN3, human HIF-prolyl-hydroxylase (from UniProt Q9H6Z9 1-239)
